Experimental data reported in publication PMC12695944, “Geminin inhibits DNA replication licensing by sterically blocking CDT1-MCM2 interactions” (Nature Communications, 2025).

Tests used:
[1] = target: T1, CDT1^ΔN (N-terminally truncated CDT1^158-546) (human, UniProt Q9H211 158-546); assay: SPR; single-cycle; CDT1^ΔN covalently immobilised on a CM5 chip (EDC/NHS); Gem^FL dimer injected, 7 injections, three-fold steps up to 750 nM; 25 °C; 10 mM HEPES, 500 mM NaCl, 50 µM EDTA, 1 mM TCEP-HCl, 0.05% Tween-20, pH 8.0; 1:1 kinetic model of analyte dimer:CDT1; conditions: both partners purified
T1 construct: CDT1, human, UniProt Q9H211, residues 158-546 (lacks the unstructured N-terminus); Plasmid is in Supplementary Data 1; The His tag serves for capture on the NTA chip in the SPR with peptides; also called standard CDT1 construct; source: E. coli BL21 (DE3), purified (HisTrap Excel, POROS HS, Superdex 200); not shown: His6, N-terminal, kept
T1 sequence (looked up): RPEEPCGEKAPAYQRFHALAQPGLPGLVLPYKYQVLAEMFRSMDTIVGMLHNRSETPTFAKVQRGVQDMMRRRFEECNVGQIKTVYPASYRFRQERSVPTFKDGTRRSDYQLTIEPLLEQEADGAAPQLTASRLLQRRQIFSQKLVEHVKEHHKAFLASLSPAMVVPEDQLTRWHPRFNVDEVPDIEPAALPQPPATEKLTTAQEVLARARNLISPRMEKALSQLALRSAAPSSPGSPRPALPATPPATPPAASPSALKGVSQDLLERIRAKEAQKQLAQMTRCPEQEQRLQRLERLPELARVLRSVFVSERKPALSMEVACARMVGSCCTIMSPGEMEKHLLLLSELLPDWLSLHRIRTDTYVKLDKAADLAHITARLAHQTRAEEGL

[2] = target: T2, CDT1^ΔN (N-terminally truncated CDT1^158-546) (human, UniProt Q9H211 158-546); assay: SPR
T2 chain: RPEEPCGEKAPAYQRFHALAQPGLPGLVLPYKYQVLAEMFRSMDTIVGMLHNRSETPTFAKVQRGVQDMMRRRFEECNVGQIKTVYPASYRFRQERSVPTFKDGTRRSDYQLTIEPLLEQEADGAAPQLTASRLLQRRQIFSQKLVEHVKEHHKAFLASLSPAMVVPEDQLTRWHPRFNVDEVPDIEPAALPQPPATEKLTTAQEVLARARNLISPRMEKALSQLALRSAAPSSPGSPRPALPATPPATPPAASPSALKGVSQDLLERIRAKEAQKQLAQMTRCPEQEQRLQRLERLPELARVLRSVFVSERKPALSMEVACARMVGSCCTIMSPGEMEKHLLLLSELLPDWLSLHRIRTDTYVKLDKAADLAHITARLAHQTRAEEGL

[3] = target: T3, full-length CDT1 (CDT1^FL), untagged, co-expressed with geminin (CG complex) (human, UniProt Q9H211 1-546); assay: SEC-MALS; co-expressed and co-purified CDT1^FL-geminin (CG) complex at >25× higher concentration than in the pre-RC assay; conditions: both partners purified
T3 construct: CDT1, human, UniProt Q9H211, residues 1-546; A separate GST-cleaved CDT1^FL was used only in pre-RC assays; also called CDT1 of the CG complex; source: E. coli BL21 (DE3), co-expressed with His-geminin, co-purified as described for geminin
T3 sequence (looked up): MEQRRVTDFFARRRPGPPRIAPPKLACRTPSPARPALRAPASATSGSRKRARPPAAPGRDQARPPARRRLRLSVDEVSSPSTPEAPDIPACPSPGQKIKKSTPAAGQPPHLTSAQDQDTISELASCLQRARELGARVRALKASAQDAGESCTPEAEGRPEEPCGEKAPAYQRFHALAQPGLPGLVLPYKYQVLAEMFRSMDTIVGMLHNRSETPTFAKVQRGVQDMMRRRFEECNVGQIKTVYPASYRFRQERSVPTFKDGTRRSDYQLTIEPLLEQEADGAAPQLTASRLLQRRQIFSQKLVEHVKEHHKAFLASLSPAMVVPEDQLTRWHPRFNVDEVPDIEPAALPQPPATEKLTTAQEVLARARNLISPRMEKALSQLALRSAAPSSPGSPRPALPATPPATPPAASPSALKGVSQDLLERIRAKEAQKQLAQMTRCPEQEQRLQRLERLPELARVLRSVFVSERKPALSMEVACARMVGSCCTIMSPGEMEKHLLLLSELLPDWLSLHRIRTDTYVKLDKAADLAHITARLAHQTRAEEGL

[4] = target: T1, CDT1^ΔN (N-terminally truncated …); assay: mass photometry; room temperature; proteins incubated at CDT1:geminin monomer ratios 0:1, 1:0, 1:2, 1:3, 2:4, 1:4 (1 part = 150 nM) in pre-RC buffer minus Triton X-100, diluted 1:10 in PBS on the instrument; MHD, CHD at 1:2; conditions: both partners purified
[5] = target: T4, CDT1^R330A (on a CDT1^ΔN background) (human, UniProt Q9H211 158-546, R330A); assay: as above; conditions: both partners purified
T4 construct: CDT1, human, UniProt Q9H211, residues 158-546 with R330A; source: E. coli, purified as for the MHD and CHD
T4 sequence (looked up): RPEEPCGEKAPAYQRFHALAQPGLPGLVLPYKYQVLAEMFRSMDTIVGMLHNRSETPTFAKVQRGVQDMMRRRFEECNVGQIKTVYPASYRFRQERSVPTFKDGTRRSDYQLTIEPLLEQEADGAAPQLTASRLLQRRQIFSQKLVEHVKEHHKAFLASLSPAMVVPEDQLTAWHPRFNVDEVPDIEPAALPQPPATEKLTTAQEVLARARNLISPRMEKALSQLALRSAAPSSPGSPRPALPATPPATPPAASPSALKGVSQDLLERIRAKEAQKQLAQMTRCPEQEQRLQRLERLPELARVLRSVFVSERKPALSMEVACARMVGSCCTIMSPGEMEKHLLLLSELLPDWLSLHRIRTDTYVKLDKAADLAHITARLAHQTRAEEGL

[6] = target: T5, CDT1 middle helical domain (CDT1^MHD, residues 158–396) (human, UniProt Q9H211 158-396); assay: as above; conditions: both partners purified
T5 construct: CDT1, human, UniProt Q9H211, residues 158-396; also called CDT1^158-396; source: E. coli, purified as CDT1^ΔN with the POROS HS step omitted
T5 sequence (looked up): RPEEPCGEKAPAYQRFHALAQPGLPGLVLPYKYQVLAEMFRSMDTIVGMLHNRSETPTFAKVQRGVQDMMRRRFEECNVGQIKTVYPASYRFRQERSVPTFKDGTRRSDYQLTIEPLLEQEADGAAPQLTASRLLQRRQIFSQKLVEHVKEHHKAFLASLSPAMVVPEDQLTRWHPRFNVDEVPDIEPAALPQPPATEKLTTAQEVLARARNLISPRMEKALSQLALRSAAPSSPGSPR

[7] = target: the molecule itself; assay: as above
[8] = target: T6, CDT1^4A (CDT1^ΔN with residues 327–330 mutated to alanines) (human, UniProt Q9H211 158-546, residues 327–330 mutated to alanines (CDT1^4A)); assay: as above; conditions: both partners purified
T6 construct: CDT1, human, UniProt Q9H211, residues 158-546 with residues 327-330 all alanine; R330 is; source: E. coli, purified as for the MHD and CHD
T6 sequence (looked up): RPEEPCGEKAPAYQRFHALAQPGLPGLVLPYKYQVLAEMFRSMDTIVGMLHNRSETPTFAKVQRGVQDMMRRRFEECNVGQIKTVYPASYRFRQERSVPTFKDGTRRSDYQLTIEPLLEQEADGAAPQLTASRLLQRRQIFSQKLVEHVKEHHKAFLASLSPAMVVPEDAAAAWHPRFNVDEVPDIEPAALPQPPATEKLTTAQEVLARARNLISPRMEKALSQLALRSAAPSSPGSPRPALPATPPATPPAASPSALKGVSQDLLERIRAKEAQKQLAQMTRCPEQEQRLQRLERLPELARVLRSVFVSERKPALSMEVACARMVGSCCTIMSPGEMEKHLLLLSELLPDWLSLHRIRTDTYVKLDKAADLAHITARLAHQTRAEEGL

B1: full-length geminin (Gem^FL) (natural protein, human, UniProt O75496 1-209, looked up)
chain: MNPSMKQKQEEIKENIKNSSVPRRTLKMIQPSASGSLVGRENELSAGLSKRKHRNDHLTSTTSSPGVIVPESSENKNLGGVTQESFDLMIKENPSSQYWKEVAEKRRKALYEALKENEKLHKEIEQKDNEIARLKKENKELAEVAEHVQYMAELIERLNGEPLDNFESLDNQEFDSEEETVEDSLVEDSEIGTCAEGTVSSSTDAKPCI
notes: geminin, human, UniProt O75496, full length; Dimer in solution; In the co-purification of the CG complex the His tag is still on geminin at the HisTrap step and is cleaved afterwards; Plasmid is in Supplementary Data 1; also called WT geminin; source: E. coli BL21 (DE3), purified (HisTrap Excel, POROS HQ, Superdex 200); also co-expressed with untagged CDT1 in E. coli BL21 (DE3) and purified in …
[1]
  Kd: 12 nM
[2]
  koff: 0.0019 s⁻¹
[3]
  stoichiometry N: 2 geminin monomers per CDT1
[4]
  stoichiometry N: 2 geminin monomers per CDT1
[5]
  stoichiometry N: 2 geminin monomers per CDT1
[6]
  stoichiometry N: 2 geminin monomers per CDT1^MHD
[7]
  stoichiometry N: 1.91 ± 0.09
[8]
  stoichiometry N: 2 geminin monomers per CDT1
